In assay [1] the target is T1, TNFR2-His (Sino Biological, 10417-H08H, NP_001057.1 Met1-Asp257, with multi-histidine tag expressed on … (human, UniProt P20333 23-257)).
T1 construct: range 1-257; Bought protein; also called recombinant human TNFR2 protein; TNFR2-His antigen; not shown: C-terminal multi-histidine tag
T1 sequence (looked up): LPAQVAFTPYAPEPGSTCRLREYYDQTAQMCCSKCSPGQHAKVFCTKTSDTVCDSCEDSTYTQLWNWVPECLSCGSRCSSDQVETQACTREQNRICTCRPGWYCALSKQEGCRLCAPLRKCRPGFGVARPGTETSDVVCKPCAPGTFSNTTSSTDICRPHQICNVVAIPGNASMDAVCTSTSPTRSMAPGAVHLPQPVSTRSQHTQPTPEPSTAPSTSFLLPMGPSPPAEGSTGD
As to the kind of experiment: ELISA, coated TNFR2-His. The essentials:
(§1)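 Antibodies were serially diluted and incubated on blocked ELISA plates coated with C-terminally His-tagged recombinant human TNFR2. Detection used an enzyme-labelled anti-IgG secondary antibody, TMB development and a microplate reader, and the dilution series gave the EC50.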
Background: An ELISA detects its analyte on a solid surface through an enzyme-linked reagent.

The target in assay [2] is T1, TNFR2-His (Sino Biological, 10417-H08H, …). As to the kind of experiment: ELISA, plate coated with TNFR2-His. The essentials:
as §1

In assay [3] the target is T2, human TNFR2 on the cell membrane (human, UniProt P20333 23-461).
T2 construct: whole, on cells; One molecule for all cell formats; also called TNFR2-CHO cells; CHO-TNFR2
T2 sequence (looked up): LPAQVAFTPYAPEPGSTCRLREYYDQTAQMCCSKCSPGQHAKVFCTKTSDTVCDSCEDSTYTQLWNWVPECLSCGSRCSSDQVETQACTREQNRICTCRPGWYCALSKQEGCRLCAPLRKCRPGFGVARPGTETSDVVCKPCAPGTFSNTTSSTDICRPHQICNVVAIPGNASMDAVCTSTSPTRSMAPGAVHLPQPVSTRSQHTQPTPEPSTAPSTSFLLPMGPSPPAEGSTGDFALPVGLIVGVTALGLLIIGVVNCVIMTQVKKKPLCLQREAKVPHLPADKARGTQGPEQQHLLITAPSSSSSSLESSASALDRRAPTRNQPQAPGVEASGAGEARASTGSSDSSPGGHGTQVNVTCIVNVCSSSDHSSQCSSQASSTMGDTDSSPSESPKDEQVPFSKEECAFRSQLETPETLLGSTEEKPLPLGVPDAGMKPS
In words: flow cytometry on CHO-TNFR2 cells. The essentials: (§2)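 Binding was measured by flow cytometry (Beckman CytoFLEX) on a CHO line stably overexpressing human TNFR2. Cells in 96-deep-well plates were exposed to serially diluted antibodies, washed and labelled with a fluorescent anti-IgG secondary antibody, and EC50 was determined across the dilutions.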
Background: In flow cytometry, cells or beads pass a laser one at a time.

In assay [4] the target is T2, human TNFR2 on the cell membrane. In words: flow cytometry, CHO-TNFR2 cells; CHO-TNFR2 cells. Summed up:
as §2

Assay [5] deals with T1, TNFR2-His (Sino Biological, 10417-H08H, …). In words: BLI, antibody captured on AHC probe, TNFR2-His in solution. Summed up: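 Antibodies at 50 nM in Q buffer were held on antibody-capture sensors, and the sensors were then moved into recombinant human TNFR2 diluted 2-fold in Q buffer, starting from 100 nM. Q buffer was 10 mM PBS pH 7.4 with 0.02% Tween 20 and 0.2% BSA. The work used bio-layer interferometry on an Octet in Basic Kinetics mode, and Kon, koff and Kd come from these kinetic association measurements.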

Assay [6] concerns the target T3, recombinant cynomolgus monkey TNFR2 (Cyno. TNFR2) (Sino Biological, 90102-C021) (cynomolgus monkey, UniProt A0A2K5VET2 132-366).
T3 sequence: T1 sequence (looked up) with S16G, S36P, P117Q, N164H, E210A, S216G, M223V
As to the kind of experiment: ELISA, plate coated with recombinant cynomolgus monkey TNFR2. As to the method: (§3) After TMB development, the detection was performed using microplate reader: dual wavelength 450 nm/655 nm detection, and results were calculated by OD₄₅₀-OD₆₅₅.
(§4) Using the same method as above, the TNFR2 antigens of cynomolgus monkey and mouse (Sino Biological, 90102-C021 and 50128-M08H) were coated separately. The anti-human TNFR2 mouse monoclonal antibodies to be tested were gradient diluted, then added with the anti-mouse Fab segment secondary antibody (Jackson Immuno Research, 515-035-072), and TMB development was performed. ELISA was used to detect the binding of 8 strains of mouse monoclonal antibodies to recombinant mouse TNFR2 (mTNFR2) and cynomolgus monkey TNFR2 (Cyno. TNFR2).

Assay [7] deals with T4, recombinant human TNFR2 antigen (Kangdai, batch number A100114U) (human, UniProt P20333 23-257).
T4 construct: also called hTNFR2; TNFR2-FC (Shanghai Saijin Biopharmaceutical Co., Ltd., Qiangke, catalog number A100114U); not shown: Fc part of the bought TNFR2-FC
T4 sequence (looked up): T1 sequence (looked up)
As to the kind of experiment: ELISA, coated recombinant human TNFR2. As to the method:
as §3

Assay [8] has as its target T4, recombinant human TNFR2 antigen …. In words: ELISA, plate coated with recombinant human TNFR2 antigen. As to the method:
as §3

For assay [9], the target named is T5, recombinant mouse TNFR2 (mTNFR2) (Sino Biological, 50128-M08H) (mouse, UniProt P25119 23-258).
T5 sequence (looked up): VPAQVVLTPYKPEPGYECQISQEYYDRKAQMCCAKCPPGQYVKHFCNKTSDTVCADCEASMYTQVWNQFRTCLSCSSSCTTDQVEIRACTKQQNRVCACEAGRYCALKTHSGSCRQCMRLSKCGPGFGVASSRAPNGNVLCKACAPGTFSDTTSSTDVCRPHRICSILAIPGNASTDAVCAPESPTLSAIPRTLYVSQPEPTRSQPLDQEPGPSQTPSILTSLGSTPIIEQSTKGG
As to the kind of experiment: ELISA, coated mouse TNFR2. The procedure:
as §3, §4

Where a chain is given by its changes, count along the chain named. “And” between values parts separate entries of the source, which are not always exact repeats. Equal entries are not always repeated. A value given as a limit tells only on which side of the number the result lay.

B1: 11G2huVH2 + huVL2(P07267) (antibody, V domains shown)
VH: QVQLVQSGAEVKKPGASVKVSCKASGYTFITYDINWVRQAPGQGLEWIGWIYPRDGNTQFNENFKGRVTMTTDTSTSTAYMELRSLRSDDTAVYYCARGDRDYGYFDVWGQGTTVTVSS
VL: DIQMTQSPSSLSASVGDRVTITCRASQDISNYLNWYQQKPGKAPKLLIYFKSKLHSGVPSRFSGSGSGTDFTLTISSLQPEDFATYYCQQGNTLPLTFGGGTKLEIK
notes: Humanized 11G2
The EC50 is the concentration at which the effect is half-maximal. What is called Kd is the equilibrium constant for the complex coming apart. By koff is commonly meant a measure of how fast the partners let go of each other. In general, kon refers to a measure of how fast the partners come together. In the case of B1, the half-maximal effective concentration (EC50) in assay [1] was found to be 0.282 nM; in assay [2], 0.0421 µg/mL; in [3] it was 0.0214 µg/mL; in assay [4], 0.144 nM. This molecule also came in with a Kd in assay [5] of 7.3 nM. For the same molecule, the dissociation rate constant (koff) in assay [5] turned out to be 0.00205 s⁻¹. The association rate constant (kon) in [5] was found to be 280000 M⁻¹ s⁻¹.

B2: 11G2huVH4 + huVL1(P07265) (antibody, V domains shown)
VH: B1 VH with F60Y, N61A, E62Q, N63K, K65Q
VL: B1 VL with Q6P, P8T, P44V, I106L
notes: Humanized 11G2
With B2, the concentration for a half-maximal effect (EC50) in assay [1] was 0.286 nM; in assay [2], 0.0427 µg/mL; in [3], 0.0256 µg/mL; in assay [4], 0.171 nM. In assay [5], this molecule had a Kd of 9.76 nM. In assay [5], the koff is 0.00255 s⁻¹. In assay [5], this molecule gave an association rate constant (kon) of 261000 M⁻¹ s⁻¹.

B3: 11G2huVH5 + huVL1(P07266) (antibody, V domains shown)
VH: QVQLVQSGAEVKKPGASVKVSCKASGYTFITYDINWVRQATGQGLEWIGWIYPRDGNTQYAQKFQGRVTMTRNTSISTAYMELSSLRSEDTAVYYCARGDRDYGYFDVWGQGTTVTVSS
VL: B1 VL with Q6P, P8T, P44V, I106L
notes: Humanized 11G2
B3: the EC50 in assay [1] was 0.094 nM; in assay [2], 0.014 µg/mL; in [3] it was 0.0014 µg/mL; in assay [4], 0.01 nM. Moreover, the dissociation constant Kd in assay [5] amounted to 7.29 nM. Also, the off-rate (koff) in assay [5] is 0.00163 s⁻¹. Besides, the kon in assay [5] came to 223000 M⁻¹ s⁻¹.

B4: 11G2huVH3 + huVL2(P07268) (antibody, V domains shown)
VH: B3 VH with Y60F, A61N, Q62E, K63N
VL: B1 VL
notes: Humanized 11G2
B4: the 50% effective concentration (EC50) was found to be 0.271 nM in assay [1], 0.0404 µg/mL in assay [2], 0.0299 µg/mL in [3] and 0.2 nM in [4]. Also, binding in assay [5] was put at a Kd of 7.28 nM. In addition, the koff in [5] was found to be 0.0022 s⁻¹. Moreover, the kon in assay [5] stood at 302000 M⁻¹ s⁻¹.

B5: 11G2huVH3 + huVL1(P07264) (antibody, V domains shown)
VH: B3 VH with Y60F, A61N, Q62E, K63N
VL: B1 VL with Q6P, P8T, P44V, I106L
notes: Humanized 11G2
Turning to B5, the concentration for a half-maximal effect (EC50) in [1] stood at 0.328 nM; in assay [2], 0.049 µg/mL; in [3] it was 0.0275 µg/mL; in assay [4] it was 0.184 nM. This molecule returned a Kd in assay [5] of 5.1 nM. In assay [5], this molecule displayed an off-rate (koff) of 0.00161 s⁻¹. In assay [5], this molecule gave a kon of 316000 M⁻¹ s⁻¹.

B6: 11G2huVH2 + huVL1(P07263) (antibody, V domains shown)
VH: B1 VH
VL: B1 VL with Q6P, P8T, P44V, I106L
notes: Humanized 11G2
Take B6: the concentration for a half-maximal effect (EC50) in assay [1] was 0.336 nM; in assay [2], 0.0502 µg/mL; in assay [3], 0.0229 µg/mL; in assay [4], 0.153 nM. This molecule also had a Kd in [5] of 5.96 nM. The molecule further had a koff in [5] of 0.00171 s⁻¹. In assay [5], this molecule showed a kon of 287000 M⁻¹ s⁻¹.

B7: 11G2huVH1 + huVL1(P07262) (antibody, V domains shown)
VH: B1 VH with V20L, R67K, V68A, T72V, T74E, L83V
VL: B1 VL with Q6P, P8T, P44V, I106L
notes: Humanized 11G2
B7: the concentration for a half-maximal effect (EC50) in assay [1] was found to be 0.095 nM; in [2] it was 0.0141 µg/mL; in assay [3], 0.0009 µg/mL; in assay [4], 0.006 nM. In [5], this molecule gave an equilibrium dissociation constant (Kd) of 4.79 nM. For the same molecule, the koff in assay [5] is 0.00115 s⁻¹. In assay [5], this molecule returned a kon of 239000 M⁻¹ s⁻¹.

B8: anti-human TNFR2 mouse monoclonal antibody 18A2 (antibody, V domains shown)
VH: DVQLQESGPGLVKPSQSLSLTCSVTGYSITSGYYWNWIRQFPGNKLEWMGYISYDGSNNYNPSLKKRISITRDTSKNQFFLKLNSVTTEDTATYYCTGGSGTSWGQGTLVTVSA
VL: DIVMTQSHKFMSTSVGDRVSITCKASQDVTTGIAWYQQKPGQSPKLLIYSASNRFTGVPDRFTGSGSGTDFTFTISSVQAEDLAVYFCQQHYSTPFTFGSGTKLEIQ
notes: also called 18A12
For B8, the half-maximal effective concentration (EC50) in assay [6] was > 1 µg/mL and > 6.7 nM; in [7], 0.0465 µg/mL; in [8], 0.312 nM.

B9: anti-human TNFR2 mouse monoclonal antibody 13F5 (antibody, V domains shown)
VH: QVQLQQSGAELVRPGTSVKMSCKASGYTFTNYWIGWTKQRPGHGLEWIGDIFPGGDFTNYNEKFKGKATLTADKSSSTAYLQFSSLTSEDSAIYYCSRRRFTTIVAPGFDYWGQGTTLTVSS
VL: QLVLTQSSSASFSLGASAKLTCTLSSQHSMYTIEWYQQQPLKPPKFVMELKKDGSHSTGDGIPDRFSGSSSGADRYLNISNIQPEDEAIYICGVGDTIKEQFVYVFGGGTEVTVL
As for B9, the EC50 in [6] is > 1 µg/mL and > 6.7 nM; in assay [7], 0.0638 µg/mL; in assay [8], 0.428 nM. Further, the binding result in assay [9] is listed as “no binding”.

Values taken from patent US20240392024A1 (SHANGHAI CELGEN BIO PHARMACEUTICAL, published 2024).
